Drawing on PMC5374524, “Label-free quantification of calcium-sensor targeting to photoreceptor guanylate cyclase and rhodopsin kinase by backscattering interferometry” (Scientific Reports, 2017), this text covers Kd and stoichiometry N for three molecules.

In general, stoichiometry N refers to the number of molecules, sites or subunits per partner or assembly.

Experiment [1] has as its target MBP-KHD: maltose binding protein fused to the juxta-membrane and kinase homology domain of human GC-E (M496-K806) (human) (UniProt Q02846). Description: backscattering interferometry (BSI); free solution; myristoylated GCAP 0 to 6 μM with constant 375 nM MBP fusion protein; titration buffer with 200 μM Ca2+; MBP lacking a GC-E fragment as reference.
In experiment [2] the target is full-length human photoreceptor guanylate cyclase GC-E (human) (UniProt Q02846). Put plainly: backscattering interferometry (BSI); free solution; HEK cell vesicles with full-length human GC-E (50 μg/mL total protein before mixing) with 0-10 μM GCAP; 30 mM Mops/KOH pH 7.2, 60 mM KCl, 4 mM NaCl, 1 mM DTT, 3.5 mM MgCl2, 1 mM GTP, 0.3 mM ATP; 1 mM EGTA; Mock-HEK vesicles as reference; apparent KD.

Experiment [3] shares this target. Description: backscattering interferometry (BSI); free solution; HEK cell vesicles with full-length human GC-E with 0-10 μM GCAP; titration buffer with saturating 200 μM Ca2+; Mock-HEK vesicles as reference.
In experiment [4] the target is MBP-KHD: maltose binding protein fused to the juxta-membrane and kinase homology domain of human GC-E (M496-K806) (human) (UniProt Q02846). Put plainly: ITC; VP-ITC, 25 °C; MBP fusion protein 0.5 μM in the cell, GCAP 10 μM in the syringe; 30 mM Mops/KOH pH 7.2, 60 mM KCl, 4 mM NaCl, 1 mM DTT, 3.5 mM MgCl2, 1 mM GTP, 0.3 mM ATP; injections into MBP subtracted; one binding site model; data not shown. For orientation: In ITC the heat of successive injections is recorded.

The target in experiment [5] is T1, full-length human photoreceptor guanylate cyclase GC-E (human, UniProt Q02846 52-1103).
T1 construct: also called guanylate cyclase 1; guanylate cyclase type 1
T1 sequence (looked up): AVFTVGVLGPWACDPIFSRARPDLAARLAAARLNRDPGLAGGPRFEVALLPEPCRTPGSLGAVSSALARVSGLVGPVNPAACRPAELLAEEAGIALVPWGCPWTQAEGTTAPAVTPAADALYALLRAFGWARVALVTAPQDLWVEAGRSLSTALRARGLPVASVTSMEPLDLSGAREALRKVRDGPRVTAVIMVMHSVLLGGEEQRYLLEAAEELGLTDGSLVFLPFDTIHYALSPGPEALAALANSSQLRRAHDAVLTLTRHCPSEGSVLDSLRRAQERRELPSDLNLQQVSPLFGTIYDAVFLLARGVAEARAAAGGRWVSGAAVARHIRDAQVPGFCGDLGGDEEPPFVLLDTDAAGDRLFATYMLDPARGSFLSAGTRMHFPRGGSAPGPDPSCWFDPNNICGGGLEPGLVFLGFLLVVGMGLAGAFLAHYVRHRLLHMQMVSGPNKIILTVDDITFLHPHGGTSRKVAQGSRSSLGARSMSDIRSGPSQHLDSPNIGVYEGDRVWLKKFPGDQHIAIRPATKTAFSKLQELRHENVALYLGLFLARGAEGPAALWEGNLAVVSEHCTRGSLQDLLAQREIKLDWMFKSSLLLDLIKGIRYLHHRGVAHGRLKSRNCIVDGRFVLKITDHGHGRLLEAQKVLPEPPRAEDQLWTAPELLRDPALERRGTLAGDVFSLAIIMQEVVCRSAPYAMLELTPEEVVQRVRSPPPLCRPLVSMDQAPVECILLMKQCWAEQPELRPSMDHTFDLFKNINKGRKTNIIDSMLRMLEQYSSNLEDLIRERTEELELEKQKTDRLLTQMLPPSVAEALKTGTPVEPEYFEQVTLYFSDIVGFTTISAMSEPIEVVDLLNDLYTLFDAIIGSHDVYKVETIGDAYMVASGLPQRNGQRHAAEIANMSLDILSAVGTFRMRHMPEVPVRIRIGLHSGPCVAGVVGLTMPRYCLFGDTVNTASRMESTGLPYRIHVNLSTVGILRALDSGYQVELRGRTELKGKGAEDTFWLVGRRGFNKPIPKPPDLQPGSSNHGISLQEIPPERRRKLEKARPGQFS
Put plainly: backscattering interferometry (BSI); free solution; HEK cell vesicles with full-length human GC-E with 0-10 μM GCAP; titration buffer with saturating 200 μM Ca2+; Mock-HEK vesicles as reference. Particulars: one partner purified.

Experiment [6] addresses T1, full-length human photoreceptor …. Put plainly: backscattering interferometry (BSI); free solution; HEK cell vesicles with full-length human GC-E (50 μg/mL total protein before mixing) with 0-10 μM GCAP; 30 mM Mops/KOH pH 7.2, 60 mM KCl, 4 mM NaCl, 1 mM DTT, 3.5 mM MgCl2, 1 mM GTP, 0.3 mM ATP; 1 mM EGTA; Mock-HEK vesicles as reference; apparent KD. Particulars: one partner purified.

Experiment [7] has as its target T2, myristoylated bovine recoverin (bovine, UniProt P21457 1-202, myristoylated).
T2 construct: recoverin, bovine, neuronal Ca2+-sensor protein of photoreceptors
T2 sequence (looked up): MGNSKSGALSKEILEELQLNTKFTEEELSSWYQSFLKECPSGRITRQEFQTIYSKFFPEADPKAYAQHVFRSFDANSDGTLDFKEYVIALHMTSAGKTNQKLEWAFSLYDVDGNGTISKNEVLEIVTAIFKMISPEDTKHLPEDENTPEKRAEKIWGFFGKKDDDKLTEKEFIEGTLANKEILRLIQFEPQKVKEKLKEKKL
Put plainly: backscattering interferometry (BSI); free solution, label-free; recoverin dilution series with constant 4 μM GST-NRK; 20 mM HEPES/KOH pH 7.5, 100 mM NaCl, 1 mM MgCl2, 200 μM CaCl2; GST alone as reference; one site binding model. Particulars: both partners purified.

“guanylate cyclase-activating protein 1 (GCAP1), myristoylated (from UniProt P46065 1-205) (natural protein)”: the Kd in experiment [1] is 841 nM; in experiment [2], 663 nM; in experiment [3] it was 505 nM; in experiment [4] it was 580 nM. Besides, the stoichiometry N in experiment [4] was 0.9.

B1: guanylate cyclase-activating protein 2 (GCAP2), myristoylated (natural protein, UniProt P51177 1-204, looked up)
chain: MGQQFSWEEAEENGAVGAADAAQLQEWYKKFLEECPSGTLFMHEFKRFFKVPDNEEATQYVEAMFRAFDTNGDNTIDFLEYVAALNLVLRGTLEHKLKWTFKIYDKDRNGCIDRQELLDIVESIYKLKKACSVEVEAEQQGKLLTPEEVVDRIFLLVDENGDGQLSLNEFVEGARRDKWVMKMLQMDLNPSSWISQQRRKSAMF
modifications: myristoylated
B1: the Kd in experiment [5] was 418 ± 135 nM; in experiment [6] it was 231 nM.

B2: GST fusion protein containing the N-terminal 25 amino acids of bovine GRK1 (domain or fragment, UniProt P28327 1-25, looked up)
chain: MDFGSLETVVANSAFIAARGSFDAS
notes: rhodopsin kinase GRK1, bovine, the N-terminal 25 amino acids; also called NRK; N-terminal GRK1 fragment
In turn, B2 yielded a Kd in experiment [7] of 4720 nM.
